acyl = not defined here
Target: calmodulin (recombinant rat CaM) (rat, UniProt P0DP29 2-149)
Assay: NMR titration

stoichiometry N: 1
Binder: acyl-SSKGTKKFRLEGTLLRTYVCHIIFKT-NH2 (reading uncertain) [Cx50p^141–166 (connexin50 CaM-binding domain peptide, residues 141–166)]

Reference: PMC3351833 (Biochemical Journal, 2011)
